Measurements reported in patent US20260265321A1, “PEPTIDE AND POLYPEPTIDE INHIBITING THE NF-KB SIGNALING PATHWAY” (Centre National de la Recherche Scientifique, priority 2023, published 2026).
Residues, ends and D or L forms follow the SMILES beside them.

T1: IKKα(10-667) EE homodimer (Homo sapiens, UniProt O15111, S176E/S180E)
T1 construct: an equivalent construct of the IKKα homodimer (i.e. IKKα(10-667) S176E/S180E, named IKKα(10-667) EE hereafter); 6×His (followed by TEV site) (N, cleaved yes); made in house; host or cells: Sf21 insect cells (baculovirus)
T1 sequence (O15111 10-667 S176E/S180E): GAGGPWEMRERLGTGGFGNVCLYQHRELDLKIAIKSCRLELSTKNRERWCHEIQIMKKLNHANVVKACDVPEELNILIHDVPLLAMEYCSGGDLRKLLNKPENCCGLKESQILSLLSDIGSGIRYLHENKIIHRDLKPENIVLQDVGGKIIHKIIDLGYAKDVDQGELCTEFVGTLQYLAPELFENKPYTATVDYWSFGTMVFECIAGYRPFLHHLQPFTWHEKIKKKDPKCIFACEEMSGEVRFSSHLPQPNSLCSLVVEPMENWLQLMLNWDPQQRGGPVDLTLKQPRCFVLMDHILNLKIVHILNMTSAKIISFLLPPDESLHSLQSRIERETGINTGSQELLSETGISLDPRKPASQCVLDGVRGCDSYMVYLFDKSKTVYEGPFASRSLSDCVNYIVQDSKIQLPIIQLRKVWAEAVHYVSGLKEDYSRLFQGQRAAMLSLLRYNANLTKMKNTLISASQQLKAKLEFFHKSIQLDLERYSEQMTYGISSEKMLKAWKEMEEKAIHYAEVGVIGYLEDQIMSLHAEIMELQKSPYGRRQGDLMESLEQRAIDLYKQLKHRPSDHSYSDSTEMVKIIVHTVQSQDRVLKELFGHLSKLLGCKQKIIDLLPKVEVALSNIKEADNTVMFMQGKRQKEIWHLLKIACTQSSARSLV

T2: IKKα(10-667) S176E/S180E homodimer, 6×His tag removed (human, UniProt O15111 10-667)
T2 construct: also called purified IKKα
T2 sequence (looked up): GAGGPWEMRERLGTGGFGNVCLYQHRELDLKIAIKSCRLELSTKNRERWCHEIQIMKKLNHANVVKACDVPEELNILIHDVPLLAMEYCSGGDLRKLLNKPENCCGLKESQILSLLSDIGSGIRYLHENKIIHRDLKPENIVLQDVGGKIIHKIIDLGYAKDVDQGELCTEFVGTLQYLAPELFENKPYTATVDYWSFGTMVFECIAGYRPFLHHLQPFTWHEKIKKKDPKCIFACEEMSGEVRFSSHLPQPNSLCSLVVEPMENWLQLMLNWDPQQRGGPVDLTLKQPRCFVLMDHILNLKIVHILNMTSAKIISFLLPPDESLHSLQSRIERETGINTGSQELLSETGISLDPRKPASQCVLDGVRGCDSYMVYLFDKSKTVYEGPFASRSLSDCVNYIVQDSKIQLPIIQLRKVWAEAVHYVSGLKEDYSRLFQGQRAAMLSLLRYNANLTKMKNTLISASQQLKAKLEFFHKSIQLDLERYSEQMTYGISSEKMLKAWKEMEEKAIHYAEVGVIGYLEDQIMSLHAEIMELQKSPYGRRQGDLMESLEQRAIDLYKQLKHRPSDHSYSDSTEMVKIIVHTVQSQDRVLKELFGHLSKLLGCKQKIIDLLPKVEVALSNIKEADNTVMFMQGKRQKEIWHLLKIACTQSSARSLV

T3: IKKβ(1-669) S177E/S181E homodimer, 6×His tag removed (human, UniProt O14920 1-669)
T3 sequence (looked up): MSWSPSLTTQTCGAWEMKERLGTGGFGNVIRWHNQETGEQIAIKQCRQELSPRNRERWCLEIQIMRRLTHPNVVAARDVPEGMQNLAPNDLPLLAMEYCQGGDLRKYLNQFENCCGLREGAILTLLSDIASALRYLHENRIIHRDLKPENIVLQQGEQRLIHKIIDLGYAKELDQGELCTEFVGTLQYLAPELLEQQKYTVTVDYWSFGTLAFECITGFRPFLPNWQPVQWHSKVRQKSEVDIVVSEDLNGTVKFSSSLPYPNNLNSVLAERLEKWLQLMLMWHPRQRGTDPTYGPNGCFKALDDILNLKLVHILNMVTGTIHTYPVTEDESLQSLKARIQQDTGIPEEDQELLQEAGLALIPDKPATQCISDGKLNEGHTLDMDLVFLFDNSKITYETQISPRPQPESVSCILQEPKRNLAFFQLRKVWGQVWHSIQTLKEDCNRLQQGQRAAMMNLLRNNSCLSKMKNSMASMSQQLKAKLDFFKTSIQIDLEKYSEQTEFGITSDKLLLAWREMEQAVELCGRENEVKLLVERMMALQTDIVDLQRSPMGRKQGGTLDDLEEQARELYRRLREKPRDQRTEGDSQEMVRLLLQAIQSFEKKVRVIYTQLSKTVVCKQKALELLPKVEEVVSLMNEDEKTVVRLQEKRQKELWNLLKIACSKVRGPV


Legend:
[1] = molecular target: T1, IKKα(10-667) EE homodimer; assay: Isothermal titration calorimetry (ITC) of peptide binding to IKKα homodimer; settings: 25° C.; for N (binding stoichiometry of IKKα: pep): 1:1 binding model; for TΔS / ΔG / ΔH: IKKα
Experimental: All experiments were performed in ITC buffer (20 mM HEPES pH 8.0, 150 mM NaCl, 1 mM TCEP) unless otherwise stated. Purified IKKα(10-667) EE and IKKβ(1-669) EE protein samples were dialyzed overnight against ITC buffer at 4° C. Just before the ITC experiments, IKKα or IKKβ samples were concentrated, incubated at room temperature for 30 minutes and centrifuged at 11000 g to remove eventual precipitate. The final concentrations of IKKα and IKKβ in the sample cell varied between 22 and 50 μM depending on the measurement. HPLC purified synthetic peptides (IκBα pep) comprising residues 297-317 of IκBα were further desalted using a Nap5 (GE Healthcare, #17-0853-01) column equilibrated in milliQ water, lyophilized and then resuspended in ITC buffer. The concentration of peptides in the syringe varied between 220 and 975 μM depending on the measurement.
All ITC measurements were performed using a PEAQ-ITC MALVERN instrument. The titration parameters were set as following: temperature 25° C., reference power 10 μcal/s, feedback=high, stirring speed 750 RPM, initial delay 60 s, first injection 0.4 μl in 0.8 s and the remaining 19 injections were 2 μL in 4 s with 120 s of spacing. The data were fitted to a 1:1 binding model. All data were processed using NITPIC software and global fitting of two datasets was carried out using SEDPHAD.
To evaluate binding affinities, isothermal titration calorimetry (ITC) experiments were performed using a synthetic peptide that comprises the YDDφXφ motif plus the N-terminal acidic patch (residues 297-317, named IκBα pep hereafter) and purified IKKβ(1-669) EE homodimer or an equivalent construct of the IKKα homodimer (i.e. IKKα(10-667) S176E/S180E, named IKKα(10-667) EE hereafter). […] ITC analyses on the IKKα/β heterodimer were prevented by strong aggregation propensity at the concentrations required for these experiments.
All ITC experiments were performed at 25° C. The data were fitted to a 1:1 binding model. N refers to the binding stoichiometry of IKKα/β: pep, meaning that approximately half of total IKKα/β concentration binds pep ligand in agreement with the dimer form of IKKα/β being binding competent. The values for the IKKα interaction with IRF7 pep should be regarded as estimates due to low affinity and weakly exothermic binding, and therefore high experimental error and fitting uncertainty. All data were processed using NITPIC software and global fitting of two datasets was carried out using SEDPHAD.

[2] = molecular target: T2, IKKα(10-667) S176E/S180E homodimer, …; assay: ITC, 25 °C, synthetic peptide into IKK homodimer, 1:1 model
Experimental: (§1) All experiments were performed in ITC buffer (20 mM HEPES pH 8.0, 150 mM NaCl, 1 mM TCEP) unless otherwise stated. […] Just before the ITC experiments, IKKα or IKKβ samples were concentrated, incubated at room temperature for 30 minutes and centrifuged at 11000 g to remove eventual precipitate. The final concentrations of IKKα and IKKβ in the sample cell varied between 22 and 50 μM depending on the measurement. […] The concentration of peptides in the syringe varied between 220 and 975 μM depending on the measurement.
(§2) All ITC experiments were performed at 25° C. The data were fitted to a 1:1 binding model. […] All data were processed using NITPIC software and global fitting of two datasets was carried out using SEDPHAD.

[3] = molecular target: T3, IKKβ(1-669) S177E/S181E homodimer, …; assay: as above
Experimental: as §1, §2

Molecule	N (binding stoichiometry of IKKα: pep) [1]	TΔS [1] [kcal/mol]	ΔG [1] [kcal/mol]	ΔH [1] [kcal/mol]	Kd [2] [µM]	N (binding stoichiometry) [2]	TΔS [2] [kcal/mol]	ΔG [2] [kcal/mol]	ΔH [2] [kcal/mol]	N (binding stoichiometry) [3]	TΔS [3] [kcal/mol]	ΔG [3] [kcal/mol]	ΔH [3] [kcal/mol]
CC[C@H](C)[C@H](NC(=O)[C@H](CC(=O)O)NC(=O)[C@H](CC(=O)O)NC(=O)[C@H](Cc1ccc(O)cc1)NC(=O)[C@H](CC(C)C)NC(=O)[C@H](CO)NC(=O)[C@H](CC(N)=O)NC(=O)[C@H](C)NC(=O)[C@H](CO)NC(=O)[C@H](CO)NC(=O)[C@@H](N)CC(C)C)C(=O)N[C@@H](CCC(=O)O)C(=O)N[C@@H](CS)C(=O)N[C@@H](Cc1ccccc1)C(=O)N[C@@H](CC(C)C)C(=O)N[C@@H](CCSC)C(=O)N[C@@H](CCC(=O)O)C(=O)N[C@@H](CC(C)C)C(=O)N[C@@H](CCC(=O)O)C(=O)N[C@@H](CCC(N)=O)C(=O)N1CCC[C@H]1C(=O)N[C@@H](C)C(=O)O [IRF7 pep] (H-LSSANSLYDDIECFLMELEQPA-OH; N-terminus and C-terminus assumed)	0.6	-1.2	-5.5	-6.7									
CC[C@H](C)[C@H](NC(=O)CNC(=O)[C@H](CC(=O)O)NC(=O)[C@H](CC(C)C)NC(=O)CN)C(=O)N[C@H](C(=O)N[C@@H](CCC(=O)O)C(=O)N[C@@H](Cc1ccc(O)cc1)C(=O)N[C@@H](CC(=O)O)C(=O)N[C@@H](CC(=O)O)C(=O)N[C@@H](Cc1ccccc1)C(=O)N[C@@H](CCCCN)C(=O)N[C@@H](CC(C)C)C(=O)N[C@@H](CC(N)=O)C(=O)N[C@@H](CO)C(=O)N[C@@H](CO)C(=O)N[C@H](C(=O)N[C@H](C(=O)N[C@@H](CCC(=O)O)C(=O)N1CCC[C@H]1C(=O)N[C@@H](CCCCN)C(=O)N[C@@H](CCC(=O)O)C(=O)O)C(C)C)[C@@H](C)CC)[C@@H](C)CC [p100 pep] (H-GLDGIIEYDDFKLNSSIVEPKE-OH; N-terminus and C-terminus assumed)	0.60	-5.56	-6.77	-12.3									
GLDGIIEYDDFKLNSSIVEPKE [synthetic p100 pep]					11	0.6	-5.56	-6.77	-12.3				
EFTEDELPYDDCVFGGQRLTL (HPLC purified synthetic peptide; also called IkBα pep wt; P1) [synthetic IκBα pep wt (residues 297-317 of IκBα)]						0.62	-8.35	-6.88	-15.2	0.58	-9.78	-6	-15.8
